From US20220213196A1 (GRITSTONE BIO, published 2022)

Experiments:
[1] = target: HLA-A*01:01_… (HLA-PEPTIDE target G2), recombinant soluble complex (human, UniProt P04439-2 25-297; P61769 21-119, enzymatically biotinylated (BirA) for screening and functional assays); experiment: BLI (Octet), biotinylated pHLA on streptavidin sensors, Fab in solution
[2] = target: HLA-B*35:01_… (HLA-PEPTIDE target G5), recombinant soluble complex (human, UniProt P01889 25-297 at identity 0.94); P61769 21-119, enzymatically biotinylated (BirA) for screening and functional assays); experiment: scFv PPE ELISA
[3] = target: HLA-A*01:01_… (HLA-PEPTIDE target G10), recombinant soluble complex (human, UniProt P04439-2 25-297; P61769 21-119, enzymatically biotinylated (BirA) for screening and functional assays); experiment: scFv PPE ELISA

| Binder | fold binding to target pHLA over minipool of negative control pHLAs [2] [fold] | fold binding to target pHLA over minipool of negative control pHLAs [3] [fold] | other results |
| --- | --- | --- | --- |
| Fab G2-P1H11 (Fab, V domains shown, Fab) VH: QVQLVQSGAEVKKPGASVKVSCKASGYTFTNYYMHWVRQAPGQGLEWMGMINPSGGGTSYAQKFQGRVTMTRDTSTSTVYMELSSLRSEDTAVYYCARGNPWELRLDYWGQGTLVTVSS VL: DIQMTQSPSSLSASVGDRVTITCQASQDISNYLNWYQQKPGKAPKLLIYAASSLQSGVPSRFSGSGSGTDFTLTISSLQPEDFATYYCQQYYSYPFTFGPGTKVDIK |  |  | Kd [1]: 46.1 nM; koff [1]: 0.0233 s⁻¹; kon [1]: 527000 M⁻¹ s⁻¹ |
| scFv G5-P1B12 (scFv, V domains shown) VH: EVQLLESGGGLVQPGGSLRLSCAASGFTFSNSDMNWVRQAPGKGLEWVASISSSGGYINYADSVKGRFTISRDNSKNTLYLQMNSLRAEDTAVYYCAKVNWNDGPYFDYWGQGTLVTVSS VL: DIQMTQSPSSLSASVGDRVTITCRASQSISSWLAWYQQKPGKAPKLLIYAASSLQSGVPSRFSGSGSGTDFTLTISSLQPEDFATYYCQQANSFPLTFGGGTKVEIK | ≥ 3 |  |  |
| scFv G5-P1C12 (scFv, V domains shown) VH: QVQLVQSGAEVKKPGSSVKVSCKASGGTFSNFGVSWLRQAPGQGLEWMGGIIPILGTANYAQKFQGRVTITADESTSTAYMELSSLRSEDTAVYYCATPTNSGYYGPYYYYGMDVWGQGTTVTVSS VL: DIQMTQSPSSLSASVGDRVTITCRASQSISSWLAWYQQKPGKAPKLLIYAASTLQSGVPSRFSGSGSGTDFTLTISSLQPEDFATYYCQQSYSIPLTFGGGTKVEIK | ≥ 3 |  |  |
| scFv G5-P1-E05 (scFv, V domains shown) VH: QVQLVQSGAEVKKPGASVKVSCKASGYTFTSYNMHWVRQAPGQGLEWMGWINPNSGGTNYAQKFQGRVTMTRDTSTSTVYMELSSLRSEDTAVYYCARDVMDVWGQGTTVTVSS VL: DIQMTQSPSSLSASVGDRVTITCRASQGISNYLNWYQQKPGKAPKLLIYYASSLQSGVPSRFSGSGSGTDFTLTISSLQPEDFATYYCQQTYMMPYTFGQGTKVEIK | ≥ 3 |  |  |
| scFv G5-P3G01 (scFv, V domains shown) VH: QVQLVQSGAEVKKPGASVKVSCKASGGTFSGYLVSWVRQAPGQGLEWMGWINPNSGGTNTAQKFQGRVTMTRDTSTSTVYMELSSLRSEDTAVYYCAREGYGMDVWGQGTTVTVSS VL: not shown | ≥ 3 |  |  |
| scFv G5-P3G08 (scFv, V domains shown) VH: QVQLVQSGAEVKKPGASVKVSCKASGYIFRNYPMHWVRQAPGQGLEWMGWINPDSGGTKYAQKFQGRVTMTRDTSTSTVYMELSSLRSEDTAVYYCARDNGVGVDYWGQGTLVTVSS VL: DIQMTQSPSSLSASVGDRVTITCRASQGISNYLAWYQQKPGKAPKLLIYAASSLQSGVPSRFSGSGSGTDFTLTISSLQPEDFATYYCQQSYITPYTFGQGTKLEIK | ≥ 3 |  |  |
| scFv G5-P4B02 (scFv, V domains shown) VH: QVQLVQSGAEVKKPGASVKVSCKASGYTFTGYYMHWVRQAPGQGLEWMGWMNPNIGNTGYAQKFQGRVTMTRDTSTSTVYMELSSLRSEDTAVYYCARGIADSGSYYGNGRDYYYGMDVWGQGTTVTVSS VL: DIVMTQSPDSLAVSLGERATINCKTSQSVLYRPNNENYLAWYQQKPGQPPKLLIYQASIREPGVPDRFSGSGSGTDFTLTISSLQAEDVAVYYCQQYYTTPYTFGQGTKLEIK | ≥ 3 |  |  |
| scFv G5-P4E04 (scFv, V domains shown) VH: QVQLVQSGAEVKKPGASVKVSCKASGGTFSSYGISWVRQAPGQGLEWMGWINPNSGVTKYAQKFQGRVTMTRDTSTSTVYMELSSLRSEDTAVYYCARGDYYFDYWGQGTLVTVSS VL: DIQMTQSPSSLSASVGDRVTITCRASQSISRFLNWYQQKPGKAPKLLIYGASRPQSGVPSRFSGSGSGTDFTLTISSLQPEDFATYYCQQSYSTPLTFGQGTKVEIK | ≥ 3 |  |  |
| scFv G5R4-P1D06 (scFv, V domains shown) VH: QVQLVQSGAEVKKPGASVKVSCKASGYTFTSYDINWVRQAPGQGLEWMGWINPNSGDTKYSQKFQGRVTMTRDTSTSTVYMELSSLRSEDTAVYYCARDGTRYYGMDVWGQGTTVTVSS VL: not shown | ≥ 3 |  |  |
| scFv G5R4-P1H11 (scFv, V domains shown) VH: EVQLLESGGGLVKPGGSLRLSCAASGFTFSDYYMSWVRQAPGKGLEWVSYISSSSSYTNYADSVKGRFTISRDDSKNTLYLQMNSLKTEDTAVYYCARDVVANFDYWGQGTLVTVSS VL: EIVMTQSPATLSVSPGERATLSCRASQSVSSNLAWYQQKPGQAPRLLIYAASARASGIPARFSGSGSGTEFTLTISSLQSEDFAVYYCQQYGSWPRTFGQGTKVEIK | ≥ 3 |  |  |
| scFv G5R4-P2B10 (scFv, V domains shown) VH: QVQLVQSGAEVKKPGASVKVSCKASGGTFSSYAISWVRQAPGQGLEWMGWMNPDSGSTGYAQRFQGRVTMTRDTSTSTVYMELSSLRSEDTAVYYCARGHSSGWYYYYGMDVWGQGTTVTVSS VL: not shown | ≥ 3 |  |  |
| scFv G5R4-P3G05 (scFv, V domains shown) VH: QVQLVQSGAEVKKPGASVKVSCKASGYTFTNYYMHWVRQAPGQGLEWMGIINPSGGSTSYAQKFQGRVTMTRDTSTSTVYMELSSLRSEDTAVYYCARSWFGGFNYHYYGMDVWGQGTTVTVSS VL: DIQMTQSPSSLSASVGDRVTITCQASEDISNHLNWYQQKPGKAPKLLIYDALSLQSGVPSRFSGSGSGTDFTLTISSLQPEDFATYYCQQANSFPFTFGPGTKVDIK | ≥ 3 |  |  |
| scFv G5R4-P4B01 (scFv, V domains shown) VH: QVQLVQSGAEVKKPGSSVKVSCKASGGTFSSYAISWVRQAPGQGLEWMGGIIPIVGTANYAQKFQGRVTITADESTSTAYMELSSLRSEDTAVYYCARGGSYYYYGMDVWGQGTTVTVSS VL: not shown | ≥ 3 |  |  |
| scFv R3G10-P2C04 (scFv, V domains shown) VH: QVQLVQSGAEVKKPGASVKVSCKASGGTFSNSIINWVRQAPGQGLEWMGWMNPNSGNTNYAQKFQGRVTMTRDTSTSTVYMELSSLRSEDTAVYYCAREQWPSYWYFDLWGRGTLVTVSS VL: not shown |  | ≥ 3 |  |
| scFv R3G10-P2G11 (scFv, V domains shown) VH: QVQLVQSGAEVKKPGASVKVSCKASGGTFSTHDINWVRQAPGQGLEWMGVINPSGGSAIYAQKFQGRVTMTRDTSTSTVYMELSSLRSEDTAVYYCARDRGYSYGYFDYWGQGTLVTVSS VL: DIQMTQSPSSLSASVGDRVTITCRASQDISRYLAWYQQKPGKAPKLLIYDASNLETGVPSRFSGSGSGTDFTLTISSLQPEDFATYYCQQANSFPRTFGQGTKVEIK |  | ≥ 3 |  |
| scFv R3G10-P3E04 (scFv, V domains shown) VH: QVQLVQSGAEVKKPGASVKVSCKASGNTFIGYYVHWVRQAPGQGLEWVGIINPNGGSISYAQKFQGRVTMTRDTSTSTVYMELSSLRSEDTAVYYCARGSGDPNYYYYYGLDVWGQGTTVTVSS VL: DIQMTQSPSSLSASVGDRVTITCQASQDISNYLNWYQQKPGKAPKLLIYAASNLQSGVPSRFSGSGSGTDFTLTISSLQPEDFATYYCQQANSLPYTFGQGTKVEIK |  | ≥ 3 |  |
| scFv R3G10-P4A02 (scFv, V domains shown) VH: QVQLVQSGAEVKKPGASVKVSCKASGYTLSYYYMHWVRQAPGQGLEWMGMIGPSDGSTSYAQRFQGRVTMTRDTSTGTVYMELSSLRSEDTAVYYCARDTGDHFDYWGQGTLVTVSS VL: not shown |  | ≥ 3 |  |
| scFv R3G10-P4C05 (scFv, V domains shown) VH: QVQLVQSGAEVKKPGASVKVSCKASGYTFTGYYMHWVRQAPGQGLEWMGIIGPSDGSTTYAQKFQGRVTMTRDTSTSTVYMELSSLRSEDTAVYYCARAENGMDVWGQGTTVTVSS VL: DIQMTQSPSSLSASVGDRVTITCRASQRISSYLNWYQQKPGKAPKLLIYSASTLQSGVPSRFSGSGSGTDFTLTISSLQPEDFATYYCQQSYSTPFTFGPGTKVDIK |  | ≥ 3 |  |
| scFv R3G10-P4D04 (scFv, V domains shown) VH: QVQLVQSGAEVKKPGASVKVSCKASGYTFTGYYVHWVRQAPGQGLEWMGIIAPSDGSTNYAQKFQGRVTMTRDTSTSTVYMELSSLRSEDTAVYYCARDPGGYMDVWGKGTTVTVSS VL: DIQMTQSPSSLSASVGDRVTITCRASQSISSYLAWYQQKPGKAPKLLIYDASKLETGVPSRFSGSGSGTDFTLTISSLQPEDFATYYCQQSYGVPTFGQGTKLEIK |  | ≥ 3 |  |
| scFv R3G10-P4D10 (scFv, V domains shown) VH: QVQLVQSGAEVKKPGASVKVSCKASGYTFTGYYLHWVRQAPGQGLEWMGMIGPSDGSTSYAQKFQGRVTMTRDTSTSTVYMELSSLRSEDTAVYYCARDGDAFDIWGQGTMVTVSS VL: DIQMTQSPSSLSASVGDRVTITCRASQGISSWLAWYQQKPGKAPKLLIYDASNLETGVPSRFSGSGSGTDFTLTISSLQPEDFATYYCQQSYSTPLTFGGGTKVEIK |  | ≥ 3 |  |
| scFv R3G10-P4E07 (scFv, V domains shown) VH: QVQLVQSGAEVKKPGSSVKVSCKASGYTFTGYYMHWVRQAPGQGLEWMGRISPSDGSTTYAPKFQGRVTITADESTSTAYMELSSLRSEDTAVYYCARDMGDAFDIWGQGTTVTVSS VL: not shown |  | ≥ 3 |  |
| scFv R3G10-P4G06 (scFv, V domains shown, VH and VL as printed equal those of R3G10-P4A02) VH: QVQLVQSGAEVKKPGASVKVSCKASGYTLSYYYMHWVRQAPGQGLEWMGMIGPSDGSTSYAQRFQGRVTMTRDTSTGTVYMELSSLRSEDTAVYYCARDTGDHFDYWGQGTLVTVSS VL: not shown |  | ≥ 3 |  |
| scFv R3G10-P5C08 (scFv, V domains shown) VH: QVQLVQSGAEVKKPGASVKVSCKASGYNFTGYYMHWVRQAPGQGLEWMGIIAPSDGSTNYAQKFQGRVTMTRDTSTSTVYMELSSLRSEDTAVYYCARETGDDAFDIWGQGTMVTVSS VL: not shown |  | ≥ 3 |  |
